A short description of the series: self-splicing fitness, log relative to wild type (ln ratio); higher = more splicing; Tetrahymena group I intron in knt gene, E. coli kanamycin selection, DiMSum; sequences stand for … in CUCUCU…GGAGGGAAAAGUUAUCAGGCAUGCACCUGGUAGCUAGUCUUUAAACCAAUAGAUUGCAUCGGUUUAAAAGGCAAGACCGUCAAAUUGCGGGAAAGGGGUCAACAGCCGUUCAGUACCAAGUCUCAGGGGAAACUUUGAGAUGGCCUUGCAAAGGGUAUGGUAAUAAGCUGACGGACAUGGUCCUAACCACGCAGCCAAGUCCUAAGUCAACAGAUCUUCUGUUGAUAUGGAUGCAGUUCACAGACUAAAUGUCGGUCGGGGAAGAUGUAUUCUUCUCAUAAGAUAUAGUCGGACCUCUCCUUAAUGGGAGCUAGCGGAUGAAGUGAUGCAACACUGGAGCCGCUGGGAACUAAUUUGUAUGCGAAAGUAUAUUGAUUAGUUUUGGAGUACUCGUGGUCG
In short, it runs like this:
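Colonies from six replicate transformations of E. coli BL21(DE3) were pooled and amplicon-sequenced on an Illumina HiSeq 2500. The library placed an intron with all eight P1ex-region nucleotides randomised inside the knt kanamycin-resistance gene on pET-22b(+), and cells grew overnight at 37°C or 30°C on LB agar with or without 25 μg/mL kanamycin (plus 100 μg/mL carbenicillin, 50 μM IPTG, 0.2% rhamnose). Fitness is the DiMSum error-weighted combination of wild-type-normalised replicate fold changes, kanamycin versus none.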

± gives the uncertainty stated by the source.

On to CUCUAGCAAUAUUACGCGUU, for which, where the note is “37 °C”, the “self-splicing fitness (ln)” value was -2.14 ± 0.18.
As to CUCUAGCAAUAUUACGCUGG, the “self-splicing fitness (ln)” value was -3.13 ± 0.23 (30 °C) and -1.51 ± 0.32 (37 °C).
CUCUAGCAAUAUUACGGCAA: where the note is “30 °C”, the “self-splicing fitness (ln)” value was -2.38 ± 0.2.
On to CUCUAGCAAUAUUACGGCGC, for which the “self-splicing fitness (ln)” value runs as follows: (30 °C) -2.53 ± 0.28; (37 °C) -3.04 ± 0.43.
As to CUCUAGCAAUAUUACGGCUG, the “self-splicing fitness (ln)” value is, setting by setting: (30 °C) -2.87 ± 0.24; (37 °C) -2.31 ± 0.25.
As to CUCUAGCAAUAUUACGUAUA, the “self-splicing fitness (ln)” value reads like this: (30 °C) -2.7 ± 0.3; (37 °C) -2.84 ± 0.25.
On the same counts, the results for CUCUAGCAAUAUUACGUAUU are -2.14 ± 0.13 and -3.57 ± 0.25.
The like results for CUCUAGCAAUAUUACGUCUC were, in that order, -3.06 ± 0.23 and -1.81 ± 0.29.
On the same counts, the results for CUCUAGCAAUAUUACGUUCU are -3.1 ± 0.15 and -3.47 ± 0.22.
Consider CUGAAGCAAUAUUACGAAUA, for which the “self-splicing fitness (ln)” value runs as follows: (30 °C) -2.41 ± 0.48; (37 °C) -2.22 ± 0.43.
CUGAAGCAAUAUUACGAAUU: the “self-splicing fitness (ln)” value by setting is: (30 °C) -3.24 ± 0.12; (37 °C) -1.86 ± 0.14.
In the case of CUGAAGCAAUAUUACGACCG, the “self-splicing fitness (ln)” value runs as follows: (30 °C) 0.3 ± 0.15; (37 °C) 0.854 ± 0.17.
For the sequence CUGAAGCAAUAUUACGACGC, where the note is “30 °C”, the “self-splicing fitness (ln)” value is -3.78 ± 0.35.
Regarding CUGAAGCAAUAUUACGACUU, the “self-splicing fitness (ln)” value is, setting by setting: (30 °C) -3.13 ± 0.35; (37 °C) -1.75 ± 0.3.
For CUGAAGCAAUAUUACGAUUA, the “self-splicing fitness (ln)” value runs as follows: (30 °C) -2.6 ± 0.2; (37 °C) -2.84 ± 0.29.
The like results for CUGAAGCAAUAUUACGAUUC were, in that order, -3.13 ± 0.23 and -2.5 ± 0.29.
CUGAAGCAAUAUUACGCCAA: the “self-splicing fitness (ln)” value (30 °C) is -3.31 ± 0.41.
Regarding CUGAAGCAAUAUUACGCCUA, the “self-splicing fitness (ln)” value runs as follows: (30 °C) -3.82 ± 0.24; (37 °C) -3.63 ± 0.33.
In the case of CUGAAGCAAUAUUACGCUGC, the “self-splicing fitness (ln)” value (30 °C) was -2.12 ± 0.34.
Take CUGAAGCAAUAUUACGGAAC: the “self-splicing fitness (ln)” value (37 °C) was -2.55 ± 0.3.
On to CUGAAGCAAUAUUACGGAAG, for which the “self-splicing fitness (ln)” value (30 °C) is -1.37 ± 0.096 and the “self-splicing fitness (ln)” value (37 °C) was -0.636 ± 0.12.
On the same counts, the results for CUGAAGCAAUAUUACGGACA are -1.79 ± 0.14 and -2.22 ± 0.27.
With CUGAAGCAAUAUUACGGAUU, the “self-splicing fitness (ln)” value (30 °C) was -4.16 ± 0.17 and the “self-splicing fitness (ln)” value (37 °C) is -3.01 ± 0.26.
As to CUGAAGCAAUAUUACGGCUU, the “self-splicing fitness (ln)” value reads like this: (30 °C) -4 ± 0.34; (37 °C) -2.84 ± 0.26.
The like results for CUGAAGCAAUAUUACGUAAA were, in that order, -2.54 ± 0.33 and -1.7 ± 0.46.
The like results for CUGAAGCAAUAUUACGUCAC were, in that order, -2.03 ± 0.11 and -2.73 ± 0.24.
On the same counts, the results for CUGAAGCAAUAUUACGUGAU are -2.7 ± 0.12 and -1.07 ± 0.15.
Take CUGCAGCAAUAUUACGAACU: the “self-splicing fitness (ln)” value is, setting by setting: (30 °C) -2.75 ± 0.3; (37 °C) -2.34 ± 0.33.
On the same counts, the results for CUGCAGCAAUAUUACGACGG are -2.75 ± 0.17 and -0.0134 ± 0.14.
Turning to CUGCAGCAAUAUUACGAGCG, the “self-splicing fitness (ln)” value was -0.799 ± 0.093 (30 °C) and 0.667 ± 0.11 (37 °C).
The like results for CUGCAGCAAUAUUACGAGGG were, in that order, -4.19 ± 0.24 and -1.95 ± 0.17.
The like results for CUGCAGCAAUAUUACGCAAU were, in that order, -3.55 ± 0.25 and -2.77 ± 0.21.
Turning to CUGCAGCAAUAUUACGCCCA, for the setting “37 °C”, the “self-splicing fitness (ln)” value is -1.31 ± 0.49.
On to CUGCAGCAAUAUUACGCUUG, for which the “self-splicing fitness (ln)” value reads like this: (30 °C) -3.55 ± 0.2; (37 °C) -2.25 ± 0.22.
Take CUGCAGCAAUAUUACGCUUU: the “self-splicing fitness (ln)” value was -4.46 ± 0.28 (30 °C) and -2.6 ± 0.26 (37 °C).
The like results for CUGCAGCAAUAUUACGGACU were, in that order, -3.58 ± 0.21 and -1.33 ± 0.15.
The like results for CUGCAGCAAUAUUACGGGCG were, in that order, -1.3 ± 0.059 and -0.522 ± 0.073.
On the same counts, the results for CUGCAGCAAUAUUACGGGGA are -2.72 ± 0.19 and -2.22 ± 0.18.
As to CUGCAGCAAUAUUACGGUAA, the “self-splicing fitness (ln)” value is -2.7 ± 0.16 (30 °C) and -1.76 ± 0.14 (37 °C).
On the same counts, the results for CUGCAGCAAUAUUACGGUAU are -4.53 ± 0.25 and -2.85 ± 0.19.

The values are drawn from the supplement of paper PMC7877785.
